Patent US20240182536A1 (MURAL ONCOLOGY, published 2024)

T1: IL-18 receptor (IL-18Rα and IL-18Rβ) (UniProt Q13478 19-541; O95256 20-599, limits assumed)
T1 sequence (looked up) 1: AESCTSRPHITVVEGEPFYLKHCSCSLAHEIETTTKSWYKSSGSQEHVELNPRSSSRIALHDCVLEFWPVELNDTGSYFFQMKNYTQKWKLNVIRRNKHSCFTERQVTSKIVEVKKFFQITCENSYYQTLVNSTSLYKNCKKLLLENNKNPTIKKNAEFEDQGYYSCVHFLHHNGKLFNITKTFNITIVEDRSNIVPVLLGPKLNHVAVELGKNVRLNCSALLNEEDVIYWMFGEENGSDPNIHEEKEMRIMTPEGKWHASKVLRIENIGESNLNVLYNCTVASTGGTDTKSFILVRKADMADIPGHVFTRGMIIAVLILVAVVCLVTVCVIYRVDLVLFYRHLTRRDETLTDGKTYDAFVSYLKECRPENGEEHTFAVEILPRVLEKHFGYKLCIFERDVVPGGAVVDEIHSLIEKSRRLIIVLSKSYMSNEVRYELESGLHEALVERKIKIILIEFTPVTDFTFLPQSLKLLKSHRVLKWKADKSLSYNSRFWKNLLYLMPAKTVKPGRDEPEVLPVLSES
T1 sequence (looked up) 2: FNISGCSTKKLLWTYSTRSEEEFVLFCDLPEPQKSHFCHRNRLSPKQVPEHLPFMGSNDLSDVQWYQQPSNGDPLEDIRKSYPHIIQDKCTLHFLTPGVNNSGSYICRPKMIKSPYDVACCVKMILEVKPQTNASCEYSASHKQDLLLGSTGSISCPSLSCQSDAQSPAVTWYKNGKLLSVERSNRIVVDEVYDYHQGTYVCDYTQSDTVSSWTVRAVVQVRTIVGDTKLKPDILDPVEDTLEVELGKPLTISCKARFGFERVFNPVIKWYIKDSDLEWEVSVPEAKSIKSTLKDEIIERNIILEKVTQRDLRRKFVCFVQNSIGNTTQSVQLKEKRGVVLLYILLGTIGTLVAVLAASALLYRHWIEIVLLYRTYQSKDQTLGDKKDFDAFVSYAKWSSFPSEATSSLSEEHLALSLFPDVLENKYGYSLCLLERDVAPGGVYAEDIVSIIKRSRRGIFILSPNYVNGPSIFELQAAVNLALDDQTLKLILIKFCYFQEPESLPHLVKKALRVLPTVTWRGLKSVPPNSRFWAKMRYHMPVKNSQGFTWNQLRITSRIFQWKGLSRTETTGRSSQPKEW

T2: IL-18 receptors on HEK-Blue IL-18 reporter cells (UniProt Q13478 19-541; O95256 20-599, limits assumed)
T2 sequence (looked up) 1: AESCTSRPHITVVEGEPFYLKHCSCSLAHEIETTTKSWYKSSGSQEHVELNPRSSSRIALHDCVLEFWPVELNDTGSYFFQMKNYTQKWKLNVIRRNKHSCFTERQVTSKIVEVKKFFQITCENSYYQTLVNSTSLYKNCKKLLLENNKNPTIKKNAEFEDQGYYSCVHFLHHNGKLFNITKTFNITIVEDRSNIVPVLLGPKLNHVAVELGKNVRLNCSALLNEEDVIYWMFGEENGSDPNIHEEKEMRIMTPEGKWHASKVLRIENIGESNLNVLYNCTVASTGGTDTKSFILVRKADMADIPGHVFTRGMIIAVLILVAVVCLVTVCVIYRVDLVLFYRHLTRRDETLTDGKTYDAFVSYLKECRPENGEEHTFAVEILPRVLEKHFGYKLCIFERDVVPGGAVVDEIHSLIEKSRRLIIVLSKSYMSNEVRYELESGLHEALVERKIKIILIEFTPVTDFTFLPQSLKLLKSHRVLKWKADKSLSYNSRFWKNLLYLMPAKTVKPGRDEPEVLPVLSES
T2 sequence (looked up) 2: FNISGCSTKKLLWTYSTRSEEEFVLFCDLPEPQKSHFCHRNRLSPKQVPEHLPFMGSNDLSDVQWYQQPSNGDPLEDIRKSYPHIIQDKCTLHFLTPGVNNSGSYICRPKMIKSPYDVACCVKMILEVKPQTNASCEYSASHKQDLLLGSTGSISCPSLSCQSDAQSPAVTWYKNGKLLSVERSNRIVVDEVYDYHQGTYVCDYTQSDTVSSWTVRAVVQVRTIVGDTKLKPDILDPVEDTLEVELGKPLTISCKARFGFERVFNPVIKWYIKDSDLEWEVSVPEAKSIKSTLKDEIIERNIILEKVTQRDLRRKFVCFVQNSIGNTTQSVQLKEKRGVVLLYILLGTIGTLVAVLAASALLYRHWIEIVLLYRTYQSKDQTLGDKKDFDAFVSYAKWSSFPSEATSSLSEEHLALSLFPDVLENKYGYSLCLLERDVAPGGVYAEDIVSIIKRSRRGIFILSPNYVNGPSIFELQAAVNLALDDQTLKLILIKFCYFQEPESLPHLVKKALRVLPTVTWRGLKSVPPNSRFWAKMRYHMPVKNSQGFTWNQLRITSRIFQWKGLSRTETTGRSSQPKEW

T3: human IL-18 binding protein (human, UniProt O95998 31-194)
T3 sequence (looked up): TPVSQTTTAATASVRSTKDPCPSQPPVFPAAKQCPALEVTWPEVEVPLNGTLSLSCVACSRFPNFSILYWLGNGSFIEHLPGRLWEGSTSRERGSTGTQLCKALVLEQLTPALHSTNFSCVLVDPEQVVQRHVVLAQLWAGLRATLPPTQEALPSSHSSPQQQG

T4: human IL-18 binding protein (IL-18BP) (human, UniProt O95998 31-194)
T4 sequence (looked up): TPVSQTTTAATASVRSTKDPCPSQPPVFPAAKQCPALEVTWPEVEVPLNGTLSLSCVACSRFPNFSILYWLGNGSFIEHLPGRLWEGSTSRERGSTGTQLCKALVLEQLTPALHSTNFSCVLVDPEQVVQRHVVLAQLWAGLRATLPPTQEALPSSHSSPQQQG

T5: IL-18 receptors on HEK-Blue IL-18 reporter cells (InvivoGen) (UniProt Q13478 19-541; O95256 20-599)
T5 sequence (looked up) 1: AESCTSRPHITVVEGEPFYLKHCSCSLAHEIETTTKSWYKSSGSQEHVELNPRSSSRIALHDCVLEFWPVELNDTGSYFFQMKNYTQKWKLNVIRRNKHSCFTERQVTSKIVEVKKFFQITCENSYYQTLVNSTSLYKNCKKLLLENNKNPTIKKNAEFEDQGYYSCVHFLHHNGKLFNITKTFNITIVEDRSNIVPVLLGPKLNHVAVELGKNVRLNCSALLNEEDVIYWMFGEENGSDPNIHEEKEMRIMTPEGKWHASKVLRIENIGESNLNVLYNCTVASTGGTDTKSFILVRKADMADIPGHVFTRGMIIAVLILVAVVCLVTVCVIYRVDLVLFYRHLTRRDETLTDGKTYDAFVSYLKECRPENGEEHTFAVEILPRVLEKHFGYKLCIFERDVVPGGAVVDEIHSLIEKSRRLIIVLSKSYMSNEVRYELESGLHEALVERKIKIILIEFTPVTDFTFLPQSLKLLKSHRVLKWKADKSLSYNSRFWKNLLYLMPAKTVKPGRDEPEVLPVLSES
T5 sequence (looked up) 2: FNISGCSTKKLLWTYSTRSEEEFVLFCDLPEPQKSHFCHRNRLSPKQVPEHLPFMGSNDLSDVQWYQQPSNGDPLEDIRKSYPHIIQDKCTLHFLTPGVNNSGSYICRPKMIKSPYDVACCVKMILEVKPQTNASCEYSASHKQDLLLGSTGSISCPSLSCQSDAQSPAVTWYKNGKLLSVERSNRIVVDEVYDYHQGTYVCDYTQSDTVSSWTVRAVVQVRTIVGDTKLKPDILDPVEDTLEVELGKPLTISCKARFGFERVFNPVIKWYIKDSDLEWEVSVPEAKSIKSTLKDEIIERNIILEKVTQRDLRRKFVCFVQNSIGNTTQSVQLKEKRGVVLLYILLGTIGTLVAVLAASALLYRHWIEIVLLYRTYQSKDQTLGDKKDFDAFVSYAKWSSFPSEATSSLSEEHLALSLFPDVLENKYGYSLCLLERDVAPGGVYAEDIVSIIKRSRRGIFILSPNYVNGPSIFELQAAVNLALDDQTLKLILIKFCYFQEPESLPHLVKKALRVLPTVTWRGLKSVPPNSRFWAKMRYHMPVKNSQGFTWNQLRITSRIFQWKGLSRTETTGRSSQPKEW


Columns and labels:
Assay in all cases: cell-based or functional assay
[1] = target: T1, IL-18 receptor (IL-18Rα and IL-18Rβ)
[2] = target: T2, IL-18 receptors on HEK-Blue IL-18 …
[3] = target: T3, human IL-18 binding protein
[4] = target: T4, human IL-18 binding protein (IL-18BP)
[5] = target: T5, IL-18 receptors on HEK-Blue IL-18 …

| Binder | EC50 (pM), PBMC IFN gamma assay, average [1] [pM] | EC50 (pM), PBMC IFN gamma assay, run 1 [1] [pM] | EC50 (pM), PBMC IFN gamma assay, run 2 [1] [pM] | EC50 (pM), PBMC IFN gamma assay, run 3 [1] [pM] | PBMC IFN gamma EC50 relative to WT-IL18, average [1] | PBMC IFN gamma EC50 relative to WT-IL18, run 1 [1] | PBMC IFN gamma EC50 relative to WT-IL18, run 2 [1] | PBMC IFN gamma EC50 relative to WT-IL18, run 3 [1] | HEK-Blue activity, No BP, DF-10000 [2] | HEK-Blue activity, No BP, DF-100,000 [2] | HEK-Blue activity, No BP, DF-1,000,000 [2] | HEK-Blue activity, +100 nM BP, DF-10000 [3] | HEK-Blue activity, +100 nM BP, DF-100,000 [3] | HEK-Blue activity, +100 nM BP, DF-1,000,000 [3] | Ratio (-BP/+BP), DF-10000 [3] | Ratio (-BP/+BP), DF-100,000 [3] | Ratio (-BP/+BP), DF-1,000,000 [3] | also measured |
| --- | --- | --- | --- | --- | --- | --- | --- | --- | --- | --- | --- | --- | --- | --- | --- | --- | --- | --- |
| hIL18 (G3V, E6K, K53A, M60K)- KiH (Fc fusion) YFVKLKSKLSVIRNLNDQVLFIDQGNRPLFEDMTDSDMRDNAPRTIFIISMYADSQPRGKAVTISVKSEKISTLSSENKIISFKEMNPPDNIKDTKSDIIFFQRSVPGHDNKMQFESSSYEGYFLASEKERDLFKLILKKEDELGDRSIMFTVQNED | 5.46 | 8.83 | 3.21 | 4.33 | 0.03 | 0.04 | 0.03 | 0.03 | – | – | – | – | – | – | – | – | – | – |
| yeast display IL-18 variant K53Y, S55Y (ligand) YFGKLESKLSVIRNLNDQVLFIDQGNRPLFEDMTDSDMRDNAPRTIFIISMYYDYQPRGMAVTISVKSEKISTLSSENKIISFKEMNPPDNIKDTKSDIIFFQRSVPGHDNKMQFESSSYEGYFLASEKERDLFKLILKKEDELGDRSIMFTVQNED | – | – | – | – | – | – | – | – | 0.38 | 0.17 | 0.12 | 0.24 | 0.14 | 0.21 | 1.57 | 1.21 | 0.57 | – |
| hIL18 (G3T, E6K, K53A, M60K) - KiH (Fc fusion) YFTKLKSKLSVIRNLNDQVLFIDQGNRPLFEDMTDSDMRDNAPRTIFIISMYADSQPRGKAVTISVKSEKISTLSSENKIISFKEMNPPDNIKDTKSDIIFFQRSVPGHDNKMQFESSSYEGYFLASEKERDLFKLILKKEDELGDRSIMFTVQNED | 16 | 13.3 | 14 | 20.7 | 0.11 | 0.06 | 0.13 | 0.13 | – | – | – | – | – | – | – | – | – | – |
| hIL18 (G3V, K53S, M60K) - KiH (Fc fusion) YFVKLESKLSVIRNLNDQVLFIDQGNRPLFEDMTDSDMRDNAPRTIFIISMYSDSQPRGKAVTISVKSEKISTLSSENKIISFKEMNPPDNIKDTKSDIIFFQRSVPGHDNKMQFESSSYEGYFLASEKERDLFKLILKKEDELGDRSIMFTVQNED | 576 | 589 | 535 | 603 | 3.75 | 2.45 | 5.08 | 3.73 | – | – | – | – | – | – | – | – | – | – |
| IL-18 variant M60K (ligand) YFGKLESKLSVIRNLNDQVLFIDQGNRPLFEDMTDSDMRDNAPRTIFIISMYKDSQPRGKAVTISVKSEKISTLSSENKIISFKEMNPPDNIKDTKSDIIFFQRSVPGHDNKMQFESSSYEGYFLASEKERDLFKLILKKEDELGDRSIMFTVQNED | – | – | – | – | – | – | – | – | – | – | – | – | – | – | – | – | – | Fold Change (BP/NO BP), 50 nM BP [4]: 1.64 fold; Fold Change (BP/NO BP), 300 nM BP [4]: 9.67 fold; HEK-Blue EC50 pM, +50 nM BP [4]: 4.77 pM; HEK-blue EC50 (pM) + 300 nM BP [4]: 38.3 pM; HEK-Blue EC50 pM, NO BP (50 nM BP run) [5]: 2.9 pM; HEK-Blue EC50 pM, NO BP (300 nM BP run) [5]: 3.96 pM |
| yeast display IL-18 variant K53Y, S55G (ligand) YFGKLESKLSVIRNLNDQVLFIDQGNRPLFEDMTDSDMRDNAPRTIFIISMYYDGQPRGMAVTISVKSEKISTLSSENKIISFKEMNPPDNIKDTKSDIIFFQRSVPGHDNKMQFESSSYEGYFLASEKERDLFKLILKKEDELGDRSIMFTVQNED | – | – | – | – | – | – | – | – | 0.36 | 0.14 | 0.12 | 0.21 | 0.16 | 0.13 | 1.71 | 0.88 | 0.94 | – |
